For assay [1], the target named is LiRecT (RecT homolog from the A118 prophage of Listeria innocua) (Listeria innocua). Nature of the assay: cryo-EM structure.
For assay [2] the target is unchanged. Nature of the assay: native MS.
Assay [3] has the same target. In words: cryo-EM structure. This is another data set of the same source.

For “LiRecT (RecT homolog from the A118 prophage of Listeria innocua) (natural protein)”, the stoichiometry N in assay [1] is 12 subunits; in assay [2], less than 9 subunits; in assay [3], 18 subunits.

The stoichiometry N is the number of molecules, sites or subunits per partner or assembly.

Values taken from paper doi:10.1101/2022.03.17.484533.
